{"source": "a protein production outcome set (Wang et al. 2014)", "test": "label from the status in PepcDB records"}
{"sequence": "MGSDISQFSASPAARQHTWTLAAYRYMARKRLGGKTAIDLKSVATKSWDIAPGEATVSPPAIFLPGQLDRVTGWEGKRFYPYVHPAQTMAGGIHTLQGPTRGYLIKDVWLVDGALYKGKASHWLSQKPSTFPTILIDHEIDRAAIYCTLNGNAWFGTWLMEDCPTYALACNEGIPVTTAPSARYPLFTQAPAYEDWLDMKPLRLRSAFFRELVLFDDQSNNRSRHARYRAMGDKLLSHVTHTQHPGVFLLRGGDGDLRLLRNELELAEHLRTTRGFRIVNPLKSDVPSIVAACAGAKVVIGVEGSQLVHGVNVLQAGGCLLTLQPPNRFVSYYKYLTDRDHQHFGFVVGLPEGDGFRIDIDEVERTLDLFPR", "values": [{"measurement": "protein production", "result": "failed"}]}
{"sequence": "MGHHHHHHSHMDVTIQHPWFKRTLGPFYPSRLFDQFFGEGLFEYDLLPFLSSTISPYYRQSLFRTVLDSGISEVRSDRDKFVIFLDVKHFSPEDLTVKVQDDFVEIHGKHNERQDDHGYISREFHRRYRLPSNVDQSALSCSLSADGMLTFCGPKIQTGLDATHAER", "values": [{"measurement": "protein production", "result": "failed"}]}
{"sequence": "MSLLDFYIIWRGDMLFATVVPIAYFLLYLKNKQVTFVFLKFVMAFVICLYWATYACTFFYSYYDVIGWFKILIIPVFSIYSGFVLHLLKSKKKKVFFLISIVYIIFWCILIFWHCMSSM", "values": [{"measurement": "protein production", "result": "failed"}]}
{"sequence": "MKSSKAEKELTHQYVLNDSLHQLFDAVNIVSVQGYDEQRRVIYWNVGSELLYGYTQKEALGQKLEDLIIPKPMREIVIGAHSDWIKKGIEIPASEITLCHKNGNDVNVFSSHALFTNQYNKKQMYCIDVNLA", "values": [{"measurement": "protein production", "result": "failed"}]}
{"sequence": "MMIARTLSIFIGTLLLATCSIPTRLNIPTIAITDHPKYKLLLILIDGLRADALEHGQAPQLARLASDGVHARWMTPSYPALTLPNAYTLITGLRPDHHGIVHNTMEDPLLGAFESERQEAISNGRWWGGEPIWVSAEHAGIRSATFLWPGSEASIAGTRPSRWYAYNKHISADTQITQALRWLNERGPDAPRLVILRFEQVNTAGDNFGPDSPQYAAAVNMIDSAIGRLIDSLRQHGKLTDTDVIVVSDQGIAPIPGDHAVPLERIVQLSDVHVVSDGQVLGITPLPGHESKVEAMVLGAHATYDCWRKQALPTHWHYGTHPRIPNIVCQMHEGWNALSAAQITKRNPLQMGGSSGFDPMLPSMRAVFLANGPSFMPNLLLNPINNVDIYPLLARLLGIAMAPNDGNPRALLQALRTSNTANGYTYSKRNALHLEHHHHHH", "values": [{"measurement": "protein production", "result": "failed"}]}
{"sequence": "MSRQPLSREDTAILVPALNEALRIREVVTDALTYCSHVIVIDDGSDDGTAECIAGMPVTLIRHPQRMGKGAALRSGFAQAQRLGMRAVMTMDGDGQHKAADFPRLLAAANRHPGCVIIGARMRKRATQPTIRRIGNDFGDWGIAWGCGFRLIDSQSGQRLYPASVFTLPNVPGEGFVFEAQLLISAARQAGARVVAVPIETRYAGTSPGTFRKSHFRLVRDLWNITSHVVKQVWAYGHVWREYRRVRANPVIVDDPDGEFATVPAVTKSNHSSLEHHHHHH", "values": [{"measurement": "protein production", "result": "failed"}]}
{"sequence": "MVEPDRVFFVRVMREWISRFTGKIIENFEIHLSQPMGFAGDIMSLTEFATSRQVKNLVLDFSDPIQRNLSQAQQIIRDGLLRCRYPQKNELDVLQDCDDPMALHVSMKTRHLVMKTNMHANDFVGISIFLNSCPELESLTFDLVTSSRFVRAPSPLVIDPVSHWLTSKSYECLEKTLKVVKITKFRGSSNELHMLQYLLRTGCVMERVDLYEAEGLNHNQKRWVLAGVEEVQQNFKRASRHLRITLHNA", "values": [{"measurement": "protein production", "result": "not failed"}]}
{"sequence": "MRERVLFFDLLRCVAAVAVIAIHVLAPYRNELGVIPMDQWLTAVGVNSVTRWAVPVFILITGALMLSDTRPFDGKYYVKRRLGKVLVPFLIWSTFYAYLSGWTAQGFDFETVKEVLSNSPFHATYYHLGFFYYFIPLYFVIPLFQWMARNVDDNVLYTYLAFWMFTSTLFLFKIDGPWSNQMWLYMGYLPLGYVLFQKVPLNRSMVTLFTGFGLVALAVTFTMVVTNSLEAEKYTVGRWLSYKTLNVILAASMIFMLCRYFGEGLPKNVQKVVSFISQHSLGIYLLHPIFLWPMKEFGWYTGHPGWVIPVWIVLSGAGALAMSYLFSKSAKTRWLLP", "values": [{"measurement": "protein production", "result": "failed"}]}
{"sequence": "MYRTTGPALRPGGFELTDWAVEHCRFQAGDRILDVGCGRGATVDRLRSHYHLEAYGIDPSATLLTLGQETYPDLPLSKARGEDIPFTNSCFDGVFVECSLSLMTDPDQALSEIRRVLKVKGKLIIHDVYARNPQGTPDLRELSIGTCIRNALVKEDLEHGLESKGLRTIHWQDHSPLLNRLMMELIMTHGSMSAFWLKSTHCSADSNRVQAALKKAKVGYFQLIAEKEAEKEAEHCPVR", "values": [{"measurement": "protein production", "result": "failed"}]}
{"sequence": "MKIKHWDRWLASLKDDDYLKNIEAIKLYLAVMSIYEPDLLDEYMIDDDFHPMISRLKNVTLDVTSARFKELYITESKMNYARDELDGAMIISKTLTKSDIVGNVALPKAQVMSVLTRMNGVTDEGLDNGFEVQVHDIMEDDLYTVTLKRIDDMKYYFGTGWSTMKHSLDLVEGDVQKLYWDQFENKFIVLNFQHKTMGIMIPV", "values": [{"measurement": "protein production", "result": "failed"}]}
{"sequence": "MEKVAFIGLGAMGYPMAGHLARRFPTLVWNRTFEKALRHQEEFGSEAVPLERVAEARVIFTCLPTTREVYEVAEALYPYLREGTYWVDATSGEPEASRRLAERLREKGVTYLDAPVSGGTSGAEAGTLTVMLGGPEEAVERVRPFLAYAKKVVHVGPVGAGHAVKAINNALLAVNLWAAGEGLLALVKQGVSAEKALEVINASSGRSNATENLIPQRVLTRAFPKTFALGLLVKDLGIAMGVLDGEKAPSPLLRLAREVYEMAKRELGPDADHVEALRLLERWGGVEIR", "values": [{"measurement": "protein production", "result": "not failed"}]}
{"sequence": "MQEEWNPLMKNRCIIWLVTGICLTVIFQFPLKSVASSADKYANFAELAEHETEGEDYQIEYTDMGTELLILSPHGGGIEGGVSELVRAFSADYSTYLFEGIKPSQNWDLHITSNHFDEPQALKAVKEHSYVLAFHGYHDIVEHTLVGGTDTGGAKAIVRALLNKGFSAELVSPSHRLAGGNPENINNQCKTGQSIQLEISTPQREAFFSEFGLWTRASSKNETFQAYVSAVKEVLETRYK", "values": [{"measurement": "protein production", "result": "failed"}]}
{"sequence": "MSGDEAVAAPVVPPVAEAAVIPEDMDVSTALELTVRKSRAYGGVVRGLHESAKLIEKRNAQLCVLAEDCNQPDYVKLVKALCADHSIKLLTVPSAKTLGEWAGLCKIDSEGNARKVVGCSCLVIKDFGEETTALNIVKKHLDSN", "values": [{"measurement": "protein production", "result": "failed"}]}
{"sequence": "MHVFGLPAIGALAGTQAYWVSLVDVYAAQARIAATGMYPSGRVKRAFPGCCRGYWGDAGGSVRAGWISAAWPYGRFDRSGRPVGGAQPQVIWCEVGCGMGEHELMIFGNKDLPQRTPERPLVTFAVFAYNQESFIRDAIEGAFAQTYEPLEIILSDDCSDDETFLIMQQMAAAYRGPHKVVVRKNHENLGVLGHVLTVAKMAAGKYMVVAAGDDISFPDRTERQVSFLERESDRVVVVSSHDVIFDENCDLPNQKQDSNLRLRKQWYKNNNSWFHGGTACYRLGVLRELPLPTSRLLYEDMALINIFKAMGYSSGFMEIPTIRRRFHQLNLGMQRPERNPWDEERRILRRIEHAADVMDYAADVIEGEGGKAAKLRVQAAIMRKYAKWPDLNFVDRFLLFFESLKAGYMRKASAKVLLGKDVVLDIRSLWC", "values": [{"measurement": "protein production", "result": "failed"}]}
{"sequence": "MRIHDIDPDNRPRERFLRSGKESLSPAELLALILRSGTAGLNIIDTCNKLISEHGLERLADLSIQELQKTPGIGEAKAMQIAAIFELQRRLHFARNMNLKVKGARDVFEYMKGRIPDETKEHLFVLFLSTKNQILRHETITIGTLTASLIHPREIFKAAIRESAHSIILVHNHPSGDVQPSNADKQVTSILKKAGDLLQIELLDHVIVGNNDWFSFRDHALL", "values": [{"measurement": "protein production", "result": "failed"}]}
{"sequence": "MTQQNHLRGVLLASSACILWGISGVAASTLFINNPHLTAMWLTQVRMISAGLILLVWGMVAGKHPFKIWHHRHAAWTAVSYGLLGLIPVQLCYFEAVRVGNAPIATIIQFLGPFIISIYYFLFKHVTPSRIELIGMIMAFIGTLLIVTHGHLNSLAISPVILFWGGLSAIGVATNTLIPRTILPKYGALTVTGWGLLIAGLFLTLLQPMWRVHLTITWPQLGLLIVIILLGTVAPFLMFARSLSDILPTTASLMDAFEPLAATVFSITFLNVQLTSFDFIGGLLIILAVMALSLNTHKMLHFLRRRRAHSSS", "values": [{"measurement": "protein production", "result": "failed"}]}
{"sequence": "SLSLIRKKGFYKQDVNKTAWELPKTYVSPTHVGSGAYGSVCSAIDKRSGEKVAIKKLSRPFQSEIFAKRAYRELLLLKHMQHENVIGLLDVFTPASSLRNFYDFYLVMPFMQTDLQKIMGLKFSEEKIQYLVYQMLKGLKYIHSAGVVHRDLKPGNLAVNEDCELKILDFGLARHADAEMTGYVVTRWYRAPEVILSWMHYNQTVDIWSVGCIMAEMLTGKTLFKGKDYLDQLTQILKVTGVPGTEFVQKLNDKAAKSYIQSLPQTPRKDFTQLFPRASPQAADLLEKMLELDVDKRLTAAQALTHPFFEPFRDPEEETEAQQPFDDSLEHEKLTVDEWKQHIYKEIVNFSPI", "values": [{"measurement": "protein production", "result": "not failed"}]}
